Assay results taken from US20180030434A1 (Genentech, published 2018).
Positions count from the first letter of the chain named. Numbers in names are those of the source.

T1: human VEGF (8-109) (human, UniProt P15692 214-315, ALEXA FLUOR 488 or ALEXA FLUOR 647 succinimidyl ester label in the flow cytometry experiments)
T1 construct: range 8-109; The SPR section says only 'human VEGF'; also called VEGF antigen
T1 sequence (looked up): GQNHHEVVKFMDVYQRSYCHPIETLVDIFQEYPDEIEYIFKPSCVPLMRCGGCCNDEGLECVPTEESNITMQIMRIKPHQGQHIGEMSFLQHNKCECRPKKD

B1: anti-IL-13 half-antibody WT (antibody, V domains shown)
VH: QVTLRESGPALVKPTQTLTLTCTVSGFSLSAYSVNWIRQPPGKALEWLAMIWGDGKIVYNSALKSRLTISKDTSKNQVVLTMTNMDPVDTATYYCAGDGYYPYAMDNWGQGSLVTVSS
VL: DIVMTQSPDSLSVSLGERATINCRASKSVDSYGNSFMHWYQQKPGQPPKLLIYLASNLESGVPDRFSGSGSGTDFTLTISSLQAEDVAVYYCQQNNEDPRTFGGGTKVEIK
notes: Half-antibody (one heavy and one light chain, knobs-into-holes Fc); Expressed in the E. coli periplasm; for SPR captured from periplasmic extract; also called anti-IL-13 WT; Half-Ab
B2: anti-IL-13 half-antibody framework variant F27L (heavy chain) (antibody, name in Kabat numbering, V domains shown)
VH: B1 VH with F27L
VL: B1 VL
notes: Half-antibody
B3: anti-IL-13 half-antibody framework variant M4L (light chain) (antibody, name in Kabat numbering, V domains shown)
VH: B1 VH
VL: B1 VL with M4L
notes: Half-antibody
B4: anti-IL-13 half-antibody framework variant E6Q (heavy chain) (antibody, name in Kabat numbering, V domains shown)
VH: B1 VH with E6Q
VL: B1 VL
notes: Half-antibody

Each binder was assayed against T2, Unizyme-tagged human IL-13 (33-146) (human, UniProt P35225 33-146, ALEXA FLUOR 488 or ALEXA FLUOR 647 succinimidyl ester label in the staining and flow cytometry experiments) (assay: SPR (Biacore 3000), half-antibody from E. coli periplasmic extract captured by Fab Binder, human IL-13 as analyte, 25 C).
T2 construct: range 33-146; The SPR section says only 'Human IL-13'; also called huIL-13; IL-13 antigen; not shown: Unizyme tag
T2 sequence (P35225 33-146, form in doubt): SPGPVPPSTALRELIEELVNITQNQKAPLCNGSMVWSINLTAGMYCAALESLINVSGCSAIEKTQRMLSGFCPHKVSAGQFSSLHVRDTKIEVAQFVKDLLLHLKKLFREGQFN

Kd [nM]	koff [s⁻¹]	kon [M⁻¹ s⁻¹]	Binder
0.04	5.09e-05	1.3e+06	B1
0.034	4.43e-05	1.3e+06	B2
0.029	3.16e-05	1.11e+06	B3
0.038	4.26e-05	1.13e+06	B4

The binders below were run against T1, human VEGF (8-109) (assay: flow cytometry (SSC against labeled VEGF) of the anti-VEGF spiking experiment, bacterial antibody display; no unstained control is drawn in these panels).
Experimental: For bacterial display, antibodies were expressed in a Lpp deletion (Δlpp) of strain 62A7. […] After 24 hours at 30° C., 1 OD aliquots were harvested and pelleted by centrifugation (4 minutes, 6500 rcf). Cells were resuspended in 100 μL PBS pH 7.4 with 2% BSA and 5 mM EDTA and incubated at 4° C. for 30 minutes. After initial incubation, SYTO® 41 or 9 nucleic acid stain (Molecular Probes, USA) was added to a final dilution of 1:100, and ALEXA⁴⁶⁸- or ALEXA⁶⁴⁷-labeled antigen added to a final concentration of 1-2 μM. Incubation was continued at 4° C. in darkness for 1 hour, at which time MgCl₂ was added to 10-20 mM final concentration. Unbound proteins were removed by washing 3 times with 1 mL volumes of PBS pH 7.4+20 mM MgCl₂. […] The FACS™ gating strategy included cells that were SYTO® dye-positive. Doublet discrimination gates were used to remove doublets and finally antigen-positive cells were sorted.

binding result	Binder
no binding	B1
